Measured values: the nanobody polyreactivity screen of Harvey et al. (2022)

Experiment: yeast display, Sf9 membrane polyspecificity reagent, FACS + sequencing; frameworks hold sequencing errors
Summary of the method: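 Galactose-induced (36–48 hours) yeast carrying a synthetic nanobody display library were exposed to 10% biotinylated, detergent-solubilized Sf9 membrane reagent at 4 °C for 1 hour. FACS followed streptavidin microbead enrichment, using low and high (top ~1%) gates for expression (anti-HA) and reagent binding (streptavidin). Colony PCR, MiSeq 2 × 250 sequencing and CDR-length filtering followed. Labels for polyreactivity reflect the gate of origin.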

Row | Sequence | polyreactivity (PSR sort gate)
1 | QVQLVESGGGLVQAGGSLRISCAASGRIFHANAMGWYRQAPGKERELLAGISRNGGRTYYADSVKGRFTISRDNAKYTVYLQMNSLKPEDTAVYYCAADGLTGSKYRATGYYWGQGTQVTVSS | high polyreactivity
2 | QVQLVESGGGLVQAGGSLRFSCAPSGITFRFYAMGCYRQAPGKESEFVAAISSRGGRTYYADSVKGRFTISRDYAKNTVYLQMNSLKPEDTAVYYCAAGKIGRYHYDYWGQGTQVTVSS | high polyreactivity
3 | QVQLVESGGGLVQAGGSLRLSCAASGRTFLYNAMGWYRQAPGKERELVAAISFDDGSTYYADSVKGRFTISRDNAKNTVYLQMNSLKPEDTAVYYCAAEYLYVGDSQAYNQYEYWGQGTQVTVSS | low polyreactivity
4 | QVQLVESGGGLVQAGGSLRLSCAASGLIFGWNAMGGYRQAPGKERELVAAINSGGITNYADSVKGRFTISRDNAKNTVYLQMYSLKPDDTEVYYCAADVVQYGLDWYGEEYESWGQGTQVTVSS | low polyreactivity
5 | QVQLVESGGGLVQAGGSLRLSCAASGSTFNSYAMGWYRQAPWKERELVAAISSTGGNTYYADSVKGRFTISRDNAKNTVYLQMNSLKPEDTAVYYCNARRYGKVVRSRYNYWGQGTQVTVSS | high polyreactivity
6 | QVQLVESGGGLVQAGGSLRLSCAASGITFYWYAMGWYRQAPGKDRELVASITGNGGGTSYADSVKGRFTIARDNAKNTVYLQMNSLKPEDTAVYYCNTSVGGKEYDSWGQGTQVTVTS | low polyreactivity
7 | QVQLVESGGGFVQAGGSLRLSCAAYGRTFGRYAMGWYRQAPGKERELVAAIRSGGSTYYADSVKGRFTISRDNAKNTVYLQMNSLKPEDTAVYYCAADIARHLTVFAYYRLDYWGQGTQVTVSS | low polyreactivity
8 | QVQLQESGGGLVQAGGSLRLSCASSGSISILQSMGWYRQAPGKERELVAGINWGATTYYADSVKGRLTTSRDYAKNTVYLQMNSLKPEDTGVYYCAVPTYYTYPLLYWGQGTQVTVSS | low polyreactivity
9 | QVQLVESGGGLVQAGGSLRISCAASGFIFFYAMGWYRQAPGKERELVASIDSGVSTDYADSVKGRLTISRDNAKNTVYLQMNSLKPEDNAVYYCAADPWSSLNYDYWGQGTQVTVSS | low polyreactivity
10 | QVQVVESGGGLVQAGGSLRLSCAASGITFFLNAMGWYRQAPGKERELVAAISSGAGTTYADSVKGRFTISRDNAKNTFFLQMKSLKPEDTAVYYCAAAGDYVVPISSTAGFGGDYWGQGTQVTVSS | low polyreactivity
11 | QVQLVESGGGLVQAGGSLRLSCAASGRIFGYYVMGWYRQAPGKERELVAAIRSSADSTYYADSVKGRFTISRDNAKNTVYFQMNSLKPEDTAVYYCAAQSPAYYTKSYWGQGTQVTVSS | low polyreactivity
12 | QVQLVESGGGLVQAGGSLRLSCAASGSIFSYYAMGWYRQAPGKERELVARITRGGDGTYYADSVKGRFTISRDNAKNTDYLQMNSLKPEDTAVYYCARRQVLYTRDFEYDYWGQGTQVTVSS | low polyreactivity
13 | QVQLVESGGGLVQAGGSLRLSCAASGNTFVPYVMGWYRQAPGKERELVAAISRRGGSTRYADSVKGRFTISRDNAKNTVYLQMNSLNPEDTAVYYCAADGYVFALQRSRGVDFGYEYWGQGTQVTVSS | high polyreactivity
14 | QVQLVESGGGLVQAGGSLRLSCAASGSSFISNTMGWYRQAPGKERELVAAISSGGDTSYADSVKGRFTISRDNAKNTVYLQMNILKPEDTAVYYCNVDTSATSYSSEYDYWGQGTQVTVSS | low polyreactivity
15 | QVQLVESGGGLVQAGGSLRLSCAASGGIFVSYAMGWYRQAPGNERELVAAITSGGGTSYADSVKGRFTISRDNAKNTVYLQMNSLKPEDTAVYYCNADGYLAERFVIRLDEYRDYDYWGQGTQVTVSS | low polyreactivity
16 | QVQHVESGGGLVQAGGSLRLSCAASGFTFYTYAMGWYRPAPGKERELVAAITSSGGSTYYADSVKGRFTISRDNAKNTVYLQMNSLKPEDTAVYYCNDRVRTQQRWVDYWGQGTQVTVSS | high polyreactivity
17 | QVQLVESGGGLVQAGGSLRLSCAASGSTLRRYAMGWYRQAPGKERELVAAISGTGSRTYYADSVKGRFTISRDNAKNTVYLQMNSLKPEDTAVYYCNASPYRLTENDYWGQGTQVTVSS | high polyreactivity
18 | QVQLVESGGGLVQAGGSLRLSCAASGFTFNAHAMGWYRQAPGKERELVAVITRSGGRTYYADSVKGRFTISRDNAKNTVYLQMNSLKPEDTAVYYCAKEGPSRVYQGTDSASDYWGQGTQVTVSS | high polyreactivity
19 | QVQLVESGGGLVQAGGSLRLSCAASGRIFYVYAMGWYRQAPGKERELVATIDWSGGSTYYADSVKGRFTISRDNAKITVYLQMNSLKPEDTAVYYCAAYYTSYWGYDYDYWGQGTQVTVSS | low polyreactivity
20 | QVQLVESGGGLVQAGGSLRLSCAASGGTFSYNAMGWYRQAPGKERELVAAISSRGGSTYYSDSVKGRFTISRDNAKNTDYLQMNSLKPEDTAVYYCNAVRGVWYGSWGQGTQVTVSS | high polyreactivity
21 | QVQLQESGGGLVQAGGSLRLSCAASGNTSDTGYMGWYRQAPGKERKLVASIDYGSNTYYADSVKVRFTISRDNAKNTVYLQMNSLKPEDTAVYYCAAYYIGDYTLVYWGQGTQVTVSS | high polyreactivity
22 | QDQLVESGGGLVQAGGSLSLSCADSGLTFGANTMGWYRQAPGKERELVATITQSVGRTYYADSVKGRFTISRDNAKNTVYLQMNSLKPEDTADYYCNAELYTVRVYTHPVYVRHDYWGQGTQVTVSS | high polyreactivity

Row | Sequence | polyreactivity (PSR sort gate)
23 | QLQLVESGGGLFQAGGSLRISCAASGRTFLRNAMGSYRQPPGKEREFVATISAGGGSTYYADSVKGRFTISRDNAKNTVYLQMNSLKPEDTAVYYCAARYRAGPGYGMDSCGQGTQVTVSS | high polyreactivity
24 | QVQLVESGGGLVQARGSLRLSCAASGSIFLYYAMGWYRQAPGKEREFVAAISIIGGSTYYADSVKGRFTISRDNAKNTVYLQMNSLKPEDTAVYYCAADYYYHRWTSVEGGYWGQGTQVTVSS | low polyreactivity
25 | QVQLVESGGGLVQAGGSLRLSCAASGITGHNAMGWYIQAPGKERELVARISSGGRTNYADSVKGRFTISRDNAKNTVYLQMNSLKPEDTAVYYCAAGFRVGSFLRYNYWGQGTQVTVSS | high polyreactivity
26 | QVQLVESGGGLVQAGGSLRLSCAASGRIFYPNAKGWYIQAPGKETELVAVIRSRGGSTYYADSVKGRFTISRDNAKNTVYLQMNSLKPEDTAVYYCAARWVGRRTKYDYWGQGTQVTVSS | high polyreactivity
27 | QVQRVESGGGLVQAGGSLRLSCAGSGRIFVQYAMGWYRQAPGKERELVAAISGSGGRTYYADSVKGRFTISRDNAKNTVYLQMNSLKPEDTAVYYCARRGAYTGRYDYWGQGTQVTVSS | high polyreactivity
28 | QVQLVESGGGLVQAGGSLRLSCAASGFIFWLYAMGWYRQAPGKERELVAAISSSGGNTYYADSVKGRFTISRDNAKNTVYLQMNSLKPEDTAVYYCAATYSYGRTYSGYYWGQGTQVTVSS | low polyreactivity
29 | QVQLVESGGGLVQAGGSLRLSCAASGSIFPGYAMGWYRPAPGKERELVAAITDSGVSTYYADSVKGRFTISRDNAKNTVYLQMNSLKPEDTAVYYCARDNWQWYPSTWYDYWGQGTQVTVSS | high polyreactivity
30 | QVQLVESGGGLVQAGGSLRLSCAASGRIFRFYAMGWYRQAPGKERELVADISRRGGSTYYADSVKGRFTISRDNAKNTVYLQMNSLKPEDTAVYYCNARWYRTGSTYHEDYWGQGTQVTVSS | high polyreactivity
31 | QLQLVESGGGLVQAGGSLRLSCAASGTIFDTYAMGWSRQAPGKEMELVAAIRWTGGSTYYADSVKGRFTISRENAKNTVYFQMNSLKPEDTAVYYCAATWYYHYNDWKPWFEYGYWGQGTQVTVSS | low polyreactivity
32 | QVQLEESGGGLVQAGGSLRLSCAASGRTFSVNPMRWYRQAPGKERELVAAISWSTGSTYYADSVKGRFTISRDNAKNTVYLQMNSLKPEDTAVYYCAKLYEYRRSRYRTYGYWGQGTQVTVSS | high polyreactivity
33 | QVQLVESGGGLVQAGGSLRLSCAASGSIFPQYAIGWYRQAPGKERELVAAITRSGGGTHYADSVKGRFTISRDNAKNTVYLQMNSLKPEDTAVYYCAKAGYRSEFEYWGQGTQVTVSS | low polyreactivity
34 | QVQLVESGGGLVQAGGSLRLSCAASGFTFDHNDMGWYRQAPGKEMELVAAITWSAGSTYYADSVKGRFTISRDNAKNTVYLEMNSLKPEDTAVYYCAADAWYYSIYRGGDYWGQGTQVTVSS | low polyreactivity
35 | QVQLVESGGGLVQAGGSLRLICAASGRTFRRNAMGWYRQAPGKERELVAGIRSSGGSTYYADSVKGRFTISRDNAKNTVYLQMNSLKTEDTAVYYFAAAYRSASFPYDYWGQGTQVTVSS | high polyreactivity
36 | QVQLVESGGGLVQAGGSLRLSCAASGSTFYYYAMGWYRPAPGKEREMVAAINSGGRTNYADSVKGRFTISRDNAKNSVYLQMNSLKPEDTAVYYCAKRTYPYGTYRSVWGYDYWGQGTQVTVSS | low polyreactivity
37 | QVQLEESGGGLVQAGGSLRLSCAASGYTVVLYAMGCDIQAPGKERELVAVISWSGGSTYYADSVKGRFTISRDNAKNTVYLQMNSLKPEDTAVYYCAVSRYYNDYWGQGTQVTVSS | low polyreactivity
38 | QVQHVESGGGLVQAGGSLRLICAASGSTFRGYAMGWYRPAPGKERELVAAITSSGGSTYYADSVKGRFTISRDNAKNTVYLQMNSLKPEDTAVYSCAAASRRFGLYGYWGQGTQVTVSS | high polyreactivity
39 | QVQLVESGGGLVQAGGSLRLSCAASGSTFDGNAMGWYRQAPGKERELVAAITRAGRTSYADSVKGRFTISRDNAKNTVYLQMNSLKPEDTAVYYCAKGGYDYWGQGTQVTVSS | low polyreactivity
40 | QVQLVESGGGLVQAGGSLRLSSSASGRIFVYYAMGWYRQAPGKERELVAAITYSVDSTYYADSVKARFTISRDNAKNTVYLQMNSLKPEDTAVYYCATDVDWAYGYQYEYWGQGTQVTVSS | low polyreactivity
41 | QVQLVESGGGLVQAGGSLRLSCAASGFTFHKNAMGWYRQAPGKERELVAAITYRGGSTSYADSVKGRFTISRDNAKNTFYLQMNSLKPEDTAVYYCAAELRPYITYDGPRKKFYYWGQGTQVTVSS | high polyreactivity
42 | QVQLVESGGGLVQAGGSLRLSCAASGRTFQYYTMGWYRQAPGKEREFVAALRDSGGSTYYADSVKGRFTISRDNAKNTVYLQMNSLKPEDTAVYYCAAYRPRKYDYWGQGTQVTVSS | high polyreactivity
43 | QVQLVESGGRLVQAGGSLRLSCAASGITQGYYAMGWYRQAPGKERELVAAISYRGGNTYYADSVKGRFTISRDNAKNTVYLQMNSLKPEDTAVYYCNADLGYESGWWSKYDYWGQGTQVTVSS | low polyreactivity
